Laboratory results as given in article doi:10.1101/2020.07.30.230052 (bioRxiv, 2020).
Blank lines part the entries; values can stand above or below the molecule they belong to.

B2: PBP4 (penicillin binding protein 4, DD-carboxy/endopeptidase) of Escherichia coli, wild type, purified (enzyme)
chain: ANVDEYITQLPAGANLALMVQKVGASAPAIDYHSQQMALPASTQKVITALAALIQLGPDFRFTTTLETKGNVENGVLKGDLVARFGADPTLKRQDIRNMVATLKKSGVNQIDGNVLIDTSIFASHDKAPGWPWNDMTQCFSAPPAAAIVDRNCFSVSLYSAPKPGDMAFIRVASYYPVTMFSQVRTLPRGSAEAQYCELDVVPGDLNRFTLTGCLPQRSEPLPLAFAVQDGASYAGAILKDELKQAGITWSGTLLRQTQVNEPGTVVASKQSAPLHDLLKIMLKKSDNMIADTVFRMIGHARFNVPGTWRAGSDAVRQILRQQAGVDIGNTIIADGSGLSRHNLIAPATMMQVLQYIAQHDNELNFISMLPLAGYDGSLQYRAGLHQAGVDGKVSAKTGSLQGVYNLAGFITTASGQRMAFVQYLSGYAVEPADQRNRRIPLVRFESRLYKDIYQNN

Experiments:
[1] = molecular target: PBP4 lacking domain 3 (PBP4ΔD3), purified (Escherichia coli) (UniProt P24228); experiment: AUC
[2] = molecular target: LpoA, full length version, purified (Escherichia coli) (UniProt P45464); experiment: MST
LpoA, full length version, purified (Escherichia coli), sequence (P45464 27-678): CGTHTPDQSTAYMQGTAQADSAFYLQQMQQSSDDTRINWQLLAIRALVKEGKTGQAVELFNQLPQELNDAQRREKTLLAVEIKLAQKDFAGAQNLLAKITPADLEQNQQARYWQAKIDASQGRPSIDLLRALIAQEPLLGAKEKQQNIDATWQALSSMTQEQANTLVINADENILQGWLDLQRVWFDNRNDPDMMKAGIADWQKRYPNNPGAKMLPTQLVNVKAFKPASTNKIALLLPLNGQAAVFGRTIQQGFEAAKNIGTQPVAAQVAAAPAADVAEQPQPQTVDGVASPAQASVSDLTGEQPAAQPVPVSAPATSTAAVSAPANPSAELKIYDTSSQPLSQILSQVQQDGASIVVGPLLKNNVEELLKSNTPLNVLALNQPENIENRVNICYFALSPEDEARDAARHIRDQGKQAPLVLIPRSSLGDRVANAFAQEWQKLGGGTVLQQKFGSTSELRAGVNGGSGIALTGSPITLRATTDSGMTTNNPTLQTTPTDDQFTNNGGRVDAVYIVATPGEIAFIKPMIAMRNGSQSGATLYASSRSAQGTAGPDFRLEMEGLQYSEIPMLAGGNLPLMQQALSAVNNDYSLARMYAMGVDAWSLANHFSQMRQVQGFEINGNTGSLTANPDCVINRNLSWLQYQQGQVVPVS

[3] = molecular target: N-terminal domain of LpoA (LpoA^N, residues G28-T256) (Escherichia coli) (UniProt P45464); experiment: MST
N-terminal domain of LpoA (LpoA^N, residues G28-T256) (Escherichia coli), sequence (P45464 28-256): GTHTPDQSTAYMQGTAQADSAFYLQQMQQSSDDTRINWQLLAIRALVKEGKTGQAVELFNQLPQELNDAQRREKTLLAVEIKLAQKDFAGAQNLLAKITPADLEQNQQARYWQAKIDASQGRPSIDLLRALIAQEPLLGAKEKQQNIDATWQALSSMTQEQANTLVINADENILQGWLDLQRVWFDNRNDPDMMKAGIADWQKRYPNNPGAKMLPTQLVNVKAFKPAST

[4] = molecular target: B2; experiment: pull-down
AUC = molecular target: the molecule itself; experiment: AUC

stoichiometry N [1]: 2
Kd [2]: 0.153 µM
fold decrease of app. KD against wild-type PBP4 [3]: 50 fold
Molecule: PBP4 lacking domain 3 (PBP4ΔD3), purified (from UniProt P24228 21-477) (enzyme)

binding result [4]: binds
B1: Oligo-histidine tagged NlpI (His-NlpI) (natural protein, Escherichia coli, UniProt P0AFB1 19-294, looked up)
chain: CSNTSWRKSEVLAVPLQPTLQQEVILARMEQILASRALTDDERAQLLYERGVLYDSLGLRALARNDFSQALAIRPDMPEVFNYLGIYLTQAGNFDAAYEAFDSVLELDPTYNYAHLNRGIALYYGGRDKLAQDDLLAFYQDDPNDPFRSLWLYLAEQKLDEKQAKEVLKQHFEKSDKEQWGWNIVEFYLGNISEQTLMERLKADATDNTSLAEHLSETNFYLGKYYLSLGDLDSATALFKLAVANNVHNFVEHRYALLELSLLGQDQDDLAESDQQ

Molecule: B2
stoichiometry N (AUC): 2
